Paper PMC12239584

Target: RelJ antitoxin (recombinant His-tagged) (M. tuberculosis) (UniProt P9WF24)
Assay: native gel or EMSA

UniProt P9WF24, sequence (P9WF24 whole entry): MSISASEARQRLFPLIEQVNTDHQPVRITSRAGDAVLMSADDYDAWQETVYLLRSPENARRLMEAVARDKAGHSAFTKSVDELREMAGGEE

Substance: RelK toxin (recombinant His-tagged, unphosphorylated) (from UniProt P9WF08 2-85) (natural protein)
- stoichiometry N (RelK per RelJ): 1
